Measurements reported in paper PMC9800720, “Size-advantage of monovalent nanobodies against the macrophage mannose receptor for deep tumor penetration and tumor-associated macrophage targeting” (Theranostics, 2023).

Biological target: T1, recombinant murine MMR protein (Macrophage Mannose Receptor, CD206) (Mus musculus, UniProt Q61830)
T1 construct: Macrophage Mannose Receptor (MMR, CD206), mouse, recombinant protein of R&D systems, catalogue 2535-MM; also called recombinant mouse MMR protein; MMR Ag; source: bought: R&D systems (2535-MM)
Experiment: SPR; Biacore T200; recombinant murine MMR immobilised on a CM5 chip by amine coupling at pH 5; Nbs injected in three-fold dilutions from 100 to 0.4 nM; 25 °C, HEPES buffered saline, 30 µL/min; association 180 s, dissociation 600 s; table gives two sets of rate constants (ka1/kd1, ka2/kd2); affinity of the bivalent Nb called apparent
Details: both partners purified

T1 sequence (Q61830 20-1388): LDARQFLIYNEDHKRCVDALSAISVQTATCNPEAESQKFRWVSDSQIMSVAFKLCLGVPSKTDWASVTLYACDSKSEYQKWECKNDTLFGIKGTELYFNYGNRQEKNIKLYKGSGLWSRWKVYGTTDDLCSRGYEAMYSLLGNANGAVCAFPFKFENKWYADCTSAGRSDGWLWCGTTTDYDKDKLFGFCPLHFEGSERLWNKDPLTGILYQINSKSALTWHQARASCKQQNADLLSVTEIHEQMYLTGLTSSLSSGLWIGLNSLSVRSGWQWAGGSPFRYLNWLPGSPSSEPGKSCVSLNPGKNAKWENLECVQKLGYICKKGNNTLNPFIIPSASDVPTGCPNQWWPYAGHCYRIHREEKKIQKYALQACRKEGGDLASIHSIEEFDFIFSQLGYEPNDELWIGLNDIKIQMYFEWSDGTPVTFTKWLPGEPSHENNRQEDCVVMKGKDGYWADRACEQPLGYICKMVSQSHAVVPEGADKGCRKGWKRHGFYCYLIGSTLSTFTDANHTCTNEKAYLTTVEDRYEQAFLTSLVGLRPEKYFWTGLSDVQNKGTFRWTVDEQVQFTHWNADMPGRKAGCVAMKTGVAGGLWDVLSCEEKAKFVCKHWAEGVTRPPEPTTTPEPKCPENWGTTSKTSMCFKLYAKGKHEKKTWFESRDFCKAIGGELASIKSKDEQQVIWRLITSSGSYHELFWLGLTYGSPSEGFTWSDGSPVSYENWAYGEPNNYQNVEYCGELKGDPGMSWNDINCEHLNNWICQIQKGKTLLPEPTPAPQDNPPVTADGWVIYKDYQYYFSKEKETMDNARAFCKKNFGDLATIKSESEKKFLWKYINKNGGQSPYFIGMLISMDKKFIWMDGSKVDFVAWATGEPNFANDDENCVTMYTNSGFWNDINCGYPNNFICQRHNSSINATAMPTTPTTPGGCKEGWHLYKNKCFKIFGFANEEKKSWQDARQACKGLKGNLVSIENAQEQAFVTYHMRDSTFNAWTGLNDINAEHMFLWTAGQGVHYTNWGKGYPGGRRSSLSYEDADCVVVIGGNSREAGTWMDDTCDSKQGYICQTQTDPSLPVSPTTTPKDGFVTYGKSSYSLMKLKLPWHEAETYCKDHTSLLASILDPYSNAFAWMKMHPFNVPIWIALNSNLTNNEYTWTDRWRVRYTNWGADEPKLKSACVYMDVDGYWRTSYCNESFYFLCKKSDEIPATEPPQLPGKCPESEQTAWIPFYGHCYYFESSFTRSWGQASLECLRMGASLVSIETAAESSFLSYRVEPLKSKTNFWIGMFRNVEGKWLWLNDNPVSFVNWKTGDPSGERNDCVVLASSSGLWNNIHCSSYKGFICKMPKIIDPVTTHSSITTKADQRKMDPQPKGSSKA

B1: monovalent anti-Macrophage Mannose Receptor nanobody, (m)anti-MMR Nb (VHH)
VHH: QVQLQESGGGLVQPGGSLRLSCAASGNIFSINAIGWYRQAPGKQRELVATITLSGSTNYADSVKGRFSISRDNAKNTVYLQMNSLKPEDTAVYYCNANTYSDSDVYGYWGQGTQVTVSS
notes: anti-MMR nanobody MMRCl1; also called (m)anti-MMR Nbs; MMRCl1; source: E. coli WK6, periplasmic extract, purified (Ni-NTA, SEC); not shown: His6, C-terminal, kept
Kd: 25 nM
